The values below are quoted from earlier work in patent publication US11097005B2, “Use of cadherin-11 antagonists to treat metabolic disorders and/or increase insulin sensitivity” (The Brigham and Women's Hospital, Inc., priority 2014, dated 2021).

The conditions of this series: ob/ob mice; IL-33 administration.

B1: IL-33: cytokine, ST2 ligand; administration to ob/ob mice cited from literature (protein, UniProt Q8BVZ5 1-266, looked up)
Interleukin-33: MRPRMKYSNSKISPAKFSSTAGEALVPPCKIRRSQQKTKEFCHVYCMRLRSGLTIRKETSYFRKEPTKRYSLKSGTKHEENFSAYPRDSRKRSLLGSIQAFAASVDTLSIQGTSLLTQSPASLSTYNDQSVSFVLENGCYVINVDDSGKDQEQDQVLLRYYESPCPASQSGDGVDGKKLMVNMSPIKDTDIWLHANDKDYSVELQRGDVSPPEQAFFVLHKKSSDFVSFECKNLPGTYIGVKDNQLALVEEKDESCNNIMFKLSKI
Consider B1, for which the “accumulation of M2-macrophages in adipose tissue” value is on record as “improve” and the glucose tolerance result is reported as “improve”.
